Assay results published in patent US6998239.

Target: T1, human CCX CKR with N-terminal Flag epitope, stably expressed on HEK293 cells, Q9NPB9
T1 chain: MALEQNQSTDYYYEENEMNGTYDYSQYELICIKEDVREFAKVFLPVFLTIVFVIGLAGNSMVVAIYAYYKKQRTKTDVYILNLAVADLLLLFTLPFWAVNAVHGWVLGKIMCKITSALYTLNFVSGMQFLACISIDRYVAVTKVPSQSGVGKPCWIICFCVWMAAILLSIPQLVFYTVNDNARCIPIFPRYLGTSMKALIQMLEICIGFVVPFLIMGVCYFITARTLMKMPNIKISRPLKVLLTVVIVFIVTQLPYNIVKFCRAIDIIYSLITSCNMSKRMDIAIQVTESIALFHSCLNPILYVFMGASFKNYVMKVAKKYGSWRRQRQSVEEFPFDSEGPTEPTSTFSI
Test: 125I-ELC competition binding
Conditions: ligand; chains chain; remark: other sources report otherwise

IC50: 0.14 µM
B1: BLC (B-lymphocyte chemoattractant), O43927 23-109 (protein)
chain: VLEVYYTSLRCRCVQESSVFIPRRFIDRIQILPRGNGCPRKEIIVWKKNKSIVCVDPQAEWIQRMMEVLRKRSSSTLPVPVFKRKIP
